Assay [1] deals with RING1B C-terminal domain (C-RING1B) (Homo sapiens) (UniProt Q99496). The following applies: cited from earlier work.
Assay [2] concerns the target C-terminal region of RING1B (C-RING1B), residues 222–336, with C-terminal hexahistidine tag (human) (UniProt Q99496). The assay is described as follows: native gel or EMSA.
The target is the same in assay [3]. The assay can be described thus: SPR.
Assay [4] has as its target cbx7 cbox domain with C-terminal hexahistidine tag (human). The assay is described as follows: AUC.

As for “RING1B C-terminal domain (C-RING1B) (from UniProt Q99496)”, the Kd in assay [1] was 200000 nM. In assay [2], cbx6 cbox domain (domain or fragment) had a stoichiometry N of 1. On to “MBP–cbx6 cbox domain fusion protein (from UniProt O95503 1-412) (domain or fragment)”, for which, in assay [3], the Kd stood at 180 nM. In turn, “MBP–cbx8 cbox domain fusion protein (from UniProt Q9HC52 1-389) (domain or fragment)” showed an equilibrium dissociation constant (Kd) in assay [3] of 180 nM. In assay [3], “MBP–Drosophila Pc cbox domain fusion protein (from UniProt P26017 1-390) (domain or fragment)” yielded a Kd of 38 nM. As to “MBP–cbx7 cbox domain fusion protein (from UniProt O95931 1-251) (domain or fragment)”, the Kd in assay [3] came out at 9.2 nM.

B1: C-RING1B (residues 222–336) with C-terminal SRD sequence, coexpressed with the cbx7 cbox domain (domain or fragment)
chain: MEKTRGASEIELVFRPHPTLMEKDDSAQTRYIKTSGNATVDHLSKYLAVRLALEELRSKGESNQMNLDTASEKQYTIYIATASGQFTVLNGSFSLELVSEKYWKVNKPMELYYAPTKEHKSRD
As for B1, the stoichiometry N in assay [4] came out at 1.

These data come from article PMC4442619.
